# Tests used:
# Test in all cases: flow cytometry, alanine scan
# [1] = biological target: human CD33 G318A (human, UniProt P20138 18-364)
# [2] = biological target: human CD33 P319A (human, UniProt P20138 18-364)
# [3] = biological target: human CD33 T320A (human, UniProt P20138 18-364)
# [4] = biological target: human CD33 E321A (human, UniProt P20138 18-364)
# [5] = biological target: human CD33 T322A (human, UniProt P20138 18-364)
# [6] = biological target: human CD33 S323A (human, UniProt P20138 18-364)
# Chain of human CD33 S323A (P20138 18-364 S323A limits assumed): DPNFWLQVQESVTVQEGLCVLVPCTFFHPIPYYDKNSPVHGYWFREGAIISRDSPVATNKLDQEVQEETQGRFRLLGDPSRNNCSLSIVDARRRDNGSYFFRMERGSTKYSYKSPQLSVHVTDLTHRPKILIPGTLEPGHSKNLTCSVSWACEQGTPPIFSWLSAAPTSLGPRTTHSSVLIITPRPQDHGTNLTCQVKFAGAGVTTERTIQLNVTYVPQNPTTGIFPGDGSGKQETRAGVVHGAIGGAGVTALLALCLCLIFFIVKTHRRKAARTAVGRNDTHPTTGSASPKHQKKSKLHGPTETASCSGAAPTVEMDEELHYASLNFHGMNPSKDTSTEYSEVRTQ
# [7] = biological target: human CD33 S324A (human, UniProt P20138 18-364)
# [8] = biological target: human CD33 C325A (human, UniProt P20138 18-364)
# Chain of human CD33 C325A (P20138 18-364 C325A limits assumed): as the sequence (P20138 18-364 S323A limits assumed) above, with A306S, C308A counted along it
# [9] = biological target: human CD33 S326A (human, UniProt P20138 18-364)
# [10] = biological target: human CD33 G327A (human, UniProt P20138 18-364)
# Chain of human CD33 G327A (P20138 18-364 G327A limits assumed): as the sequence (P20138 18-364 S323A limits assumed) above, with A306S, G310A counted along it
# [11] = biological target: human CD33 A328S (human, UniProt P20138 18-364)
# [12] = biological target: human CD33 A329S (human, UniProt P20138 18-364)
# Chain of human CD33 A329S (P20138 18-364 A329S limits assumed): as the sequence (P20138 18-364 S323A limits assumed) above, with A306S, A312S counted along it
# [13] = biological target: human CD33 P330A (human, UniProt P20138 18-364)
# [14] = biological target: human CD33 T331A (human, UniProt P20138 18-364)
# [15] = biological target: human CD33 V332A (human, UniProt P20138 18-364)
# [16] = biological target: human CD33 E333A (human, UniProt P20138 18-364)
# Chain of human CD33 E333A (P20138 18-364 E333A limits assumed): as the sequence (P20138 18-364 S323A limits assumed) above, with A306S, E316A counted along it
# [17] = biological target: human CD33 M334A (human, UniProt P20138 18-364)
# [18] = biological target: human CD33 D335A (human, UniProt P20138 18-364)
# Chain of human CD33 D335A (P20138 18-364 D335A limits assumed): as the sequence (P20138 18-364 S323A limits assumed) above, with A306S, D318A counted along it
# [19] = biological target: human CD33 E336A (human, UniProt P20138 18-364)
# [20] = biological target: human CD33 E337A (human, UniProt P20138 18-364)
# [21] = biological target: human CD33 L338A (human, UniProt P20138 18-364)
# [22] = biological target: human CD33 H339A (human, UniProt P20138 18-364)
# [23] = biological target: human CD33 Y340A (human, UniProt P20138 18-364)
# [24] = biological target: human CD33 A341S (human, UniProt P20138 18-364)
# [25] = biological target: human CD33 S342A (human, UniProt P20138 18-364)
# [26] = biological target: human CD33 L343A (human, UniProt P20138 18-364)
# [27] = biological target: human CD33 N344A (human, UniProt P20138 18-364)
# Chain of human CD33 N344A (P20138 18-364 N344A limits assumed): as the sequence (P20138 18-364 S323A limits assumed) above, with A306S, N327A counted along it
# [28] = biological target: human CD33 F345A (human, UniProt P20138 18-364)
# [29] = biological target: human CD33 H346A (human, UniProt P20138 18-364)
# Chain of human CD33 H346A (P20138 18-364 H346A limits assumed): as the sequence (P20138 18-364 S323A limits assumed) above, with A306S, H329A counted along it
# [30] = biological target: human CD33 G347A (human, UniProt P20138 18-364)
# [31] = biological target: human CD33 M348A (human, UniProt P20138 18-364)
# Chain of human CD33 M348A (P20138 18-364 M348A limits assumed): as the sequence (P20138 18-364 S323A limits assumed) above, with A306S, M331A counted along it
# [32] = biological target: human CD33 N349A (human, UniProt P20138 18-364)
# [33] = biological target: human CD33 P350A (human, UniProt P20138 18-364)
# [34] = biological target: human CD33 S351A (human, UniProt P20138 18-364)
# [35] = biological target: human CD33 K352A (human, UniProt P20138 18-364)
# [36] = biological target: human CD33 D353A (human, UniProt P20138 18-364)
# Chain of human CD33 D353A (P20138 18-364 D353A limits assumed): as the sequence (P20138 18-364 S323A limits assumed) above, with A306S, D336A counted along it
# [37] = biological target: human CD33 T354A (human, UniProt P20138 18-364)
# [38] = biological target: human CD33 S355A (human, UniProt P20138 18-364)
# [39] = biological target: human CD33 T356A (human, UniProt P20138 18-364)
# [40] = biological target: human CD33 E357A (human, UniProt P20138 18-364)
# Chain of human CD33 E357A (P20138 18-364 E357A limits assumed): as the sequence (P20138 18-364 S323A limits assumed) above, with A306S, E340A counted along it
# [41] = biological target: human CD33 Y358A (human, UniProt P20138 18-364)
# Chain of human CD33 Y358A (P20138 18-364 Y358A limits assumed): as the sequence (P20138 18-364 S323A limits assumed) above, with A306S, Y341A counted along it
# [42] = biological target: human CD33 S359A (human, UniProt P20138 18-364)
# [43] = biological target: human CD33 E360A (human, UniProt P20138 18-364)
# [44] = biological target: human CD33 V361A (human, UniProt P20138 18-364)
# [45] = biological target: human CD33 R362A (human, UniProt P20138 18-364)
# [46] = biological target: human CD33 T363A (human, UniProt P20138 18-364)
# [47] = biological target: human CD33 Q364A (human, UniProt P20138 18-363)
# Chain of human CD33 T322A (P20138 18-364 T322A limits assumed): as the sequence (P20138 18-364 S323A limits assumed) above, with T305A, A306S counted along it
# Chain of human CD33 G318A (P20138 18-364 G318A limits assumed): as the sequence (P20138 18-364 S323A limits assumed) above, with G301A, A306S counted along it
binder,measurement,setting,value
"Refmab #2 (antibody, V domains shown, The alanine scan used IgG or Fab) VH: QVQLVQSGAEVKKPGSSVKVSCKASGGTFSDYAISWVRQAPGQGLEWMGRIIPILGVADYAQKFQGRVTITADKSTRTAYMELSSLRSEDTAVYYCARNWADAFDIWGQGTMVTVSS VL: DIQLTQSPSSLSASVGDRVTITCRASQGISSVLAWYQQKPGKAPKLLIYDASSLESGVPSRFSGSGSGTDFTLTISSLQPEDFATYYCQQFDSSITFGQGTKLEIK",Mean % WT Binding,[1],106 % of WT
same,Mean % WT Binding,[2],100 % of WT
same,Mean % WT Binding,[3],112 % of WT
same,Mean % WT Binding,[4],117 % of WT
same,Mean % WT Binding,[5],111 % of WT
same,Mean % WT Binding,[6],119 % of WT
same,Mean % WT Binding,[7],106 % of WT
same,Mean % WT Binding,[8],109 % of WT
same,Mean % WT Binding,[9],109 % of WT
same,Mean % WT Binding,[10],122 % of WT
same,Mean % WT Binding,[11],102 % of WT
same,Mean % WT Binding,[12],116 % of WT
same,Mean % WT Binding,[13],119 % of WT
same,Mean % WT Binding,[14],91.3 % of WT
same,Mean % WT Binding,[15],91.6 % of WT
same,Mean % WT Binding,[16],108 % of WT
same,Mean % WT Binding,[17],106 % of WT
same,Mean % WT Binding,[18],117 % of WT
same,Mean % WT Binding,[19],117 % of WT
same,Mean % WT Binding,[20],116 % of WT
same,Mean % WT Binding,[21],107 % of WT
same,Mean % WT Binding,[22],99.5 % of WT
same,Mean % WT Binding,[23],106 % of WT
same,Mean % WT Binding,[24],116 % of WT
same,Mean % WT Binding,[25],117 % of WT
same,Mean % WT Binding,[26],111 % of WT
same,Mean % WT Binding,[27],88.1 % of WT
same,Mean % WT Binding,[28],102 % of WT
same,Mean % WT Binding,[29],118 % of WT
same,Mean % WT Binding,[30],85.9 % of WT
same,Mean % WT Binding,[31],115 % of WT
same,Mean % WT Binding,[32],110 % of WT
same,Mean % WT Binding,[33],117 % of WT
same,Mean % WT Binding,[34],109 % of WT
same,Mean % WT Binding,[35],113 % of WT
same,Mean % WT Binding,[36],94.4 % of WT
same,Mean % WT Binding,[37],111 % of WT
same,Mean % WT Binding,[38],105 % of WT
same,Mean % WT Binding,[39],111 % of WT
same,Mean % WT Binding,[40],104 % of WT
same,Mean % WT Binding,[41],110 % of WT
same,Mean % WT Binding,[42],102 % of WT
same,Mean % WT Binding,[43],101 % of WT
same,Mean % WT Binding,[44],99.4 % of WT
same,Mean % WT Binding,[45],119 % of WT
same,Mean % WT Binding,[46],108 % of WT
same,Mean % WT Binding,[47],109 % of WT
"Refmab #1 (antibody, V domains shown, The alanine scan used IgG or Fab; also called hP67.6) VH: EVQLVQSGAEVKKPGSSVKVSCKASGYTITDSNIHWVRQAPGQSLEWIGYIYPYNGGTDYNQKFKNRATLTVDNPTNTAYMELSSLRSEDTAFYYCVNGNPWLAYWGQGTLVTVSS VL: DIQLTQSPSTLSASVGDRVTITCRASESLDNYGIRFLTWFQQKPGKAPKLLMYAASNQGSGVPSRFSGSGSGTEFTLTISSLQPDDFATYYCQQTKEVPWSFGQGTKVEVK",Mean % WT Binding,[1],98.5 % of WT
same,Mean % WT Binding,[2],83.9 % of WT
same,Mean % WT Binding,[3],98.5 % of WT
same,Mean % WT Binding,[4],88.3 % of WT
same,Mean % WT Binding,[5],104 % of WT
same,Mean % WT Binding,[6],95.2 % of WT
same,Mean % WT Binding,[7],97.8 % of WT
same,Mean % WT Binding,[8],80.1 % of WT
same,Mean % WT Binding,[9],85.6 % of WT
same,Mean % WT Binding,[10],88 % of WT
same,Mean % WT Binding,[11],86.5 % of WT
same,Mean % WT Binding,[12],88.1 % of WT
same,Mean % WT Binding,[13],98.6 % of WT
same,Mean % WT Binding,[14],87.4 % of WT
same,Mean % WT Binding,[15],107 % of WT
same,Mean % WT Binding,[16],77.9 % of WT
same,Mean % WT Binding,[17],94.6 % of WT
same,Mean % WT Binding,[18],77.8 % of WT
same,Mean % WT Binding,[19],82.8 % of WT
same,Mean % WT Binding,[20],91.1 % of WT
same,Mean % WT Binding,[21],83.1 % of WT
same,Mean % WT Binding,[22],76.7 % of WT
same,Mean % WT Binding,[23],91.1 % of WT
same,Mean % WT Binding,[24],86.8 % of WT
same,Mean % WT Binding,[25],79.5 % of WT
same,Mean % WT Binding,[26],88.5 % of WT
same,Mean % WT Binding,[27],72.1 % of WT
same,Mean % WT Binding,[28],97.8 % of WT
same,Mean % WT Binding,[29],81.8 % of WT
same,Mean % WT Binding,[30],85.1 % of WT
same,Mean % WT Binding,[31],83.3 % of WT
same,Mean % WT Binding,[32],92.3 % of WT
same,Mean % WT Binding,[33],99 % of WT
same,Mean % WT Binding,[34],102 % of WT
same,Mean % WT Binding,[35],95.3 % of WT
same,Mean % WT Binding,[36],94.7 % of WT
same,Mean % WT Binding,[37],91.8 % of WT
same,Mean % WT Binding,[38],86.1 % of WT
same,Mean % WT Binding,[39],93.5 % of WT
same,Mean % WT Binding,[40],98.7 % of WT
same,Mean % WT Binding,[41],76.1 % of WT
same,Mean % WT Binding,[42],95.8 % of WT
same,Mean % WT Binding,[43],73.7 % of WT
same,Mean % WT Binding,[44],88.8 % of WT
same,Mean % WT Binding,[45],104 % of WT
same,Mean % WT Binding,[46],91.4 % of WT
same,Mean % WT Binding,[47],72 % of WT

# Source: patent publication US20260242735A1 (UNIVERSIT T BASEL, published 2026)
